According to IntAct's records for PubMed 22187462:

B1: Catenin beta-1 (Homo sapiens), P35222 (parent)
chain: MATQADLMELDMAMEPDRKAAVSHWQQQSYLDSGIHSGATTTAPSLSGKGNPEEEDVDTSQVLYEWEQGFSQSFTQEQVADIDGQYAMTRAQRVRAAMFPETLDEGMQIPSTQFDAAHPTNVQRLAEPSQMLKHAVVNLINYQDDAELATRAIPELTKLLNDEDQVVVNKAAVMVHQLSKKEASRHAIMRSPQMVSAIVRTMQNTNDVETARCTAGTLHNLSHHREGLLAIFKSGGIPALVKMLGSPVDSVLFYAITTLHNLLLHQEGAKMAVRLAGGLQKMVALLNKTNVKFLAITTDCLQILAYGNQESKLIILASGGPQALVNIMRTYTYEKLLWTTSRVLKVLSVCSSNKPAIVEAGGMQALGLHLTDPSQRLVQNCLWTLRNLSDAATKQEGMEGLLGTLVQLLGSDDINVVTCAAGILSNLTCNNYKNKMMVCQVGGIEALVRTVLRAGDREDITEPAICALRHLTSRHQEAEMAQNAVRLHYGLPVVVKLLHPPSHWPLIKATVGLIRNLALCPANHAPLREQGAIPRLVQLLVRAHQDTQRRTSMGGTQQQFVEGVRMEEIVEGCTGALHILARDVHNRIVIRGLNTIPLFVQLLYSPIENIQRVAAGVLCELAQDKEAAEAIEAEGATAPLTELLHSRNEGVATYAAAVLFRMSEDKPQDYKKRLSVELTSSLFRTEPMAWNETADLGLDIGAQGEPLGYRQDDPSYRSFHSGGYGQDALGMDPMMEHEMGGHHPGADYPVDGLPDLGHAQDLMDGLPPGDSNQLAWFDTDL

Variants of: B1
Settings: with andr_human AR

| effect of a mutation on the interaction | Variant |
| --- | --- |
| disrupting interaction strength | K345A |
| disrupting interaction strength | W383A |

The remaining lines, values behind:

| Variant | effect of a mutation on the interaction |
| --- | --- |
| Y306A;K345A;W383A | disrupting interaction strength |
| Y306A | disrupting interaction strength |

Variants of: B1
Settings: with NR5A2, O00482-1
Sequence of NR5A2, O00482-1 (O00482 whole entry): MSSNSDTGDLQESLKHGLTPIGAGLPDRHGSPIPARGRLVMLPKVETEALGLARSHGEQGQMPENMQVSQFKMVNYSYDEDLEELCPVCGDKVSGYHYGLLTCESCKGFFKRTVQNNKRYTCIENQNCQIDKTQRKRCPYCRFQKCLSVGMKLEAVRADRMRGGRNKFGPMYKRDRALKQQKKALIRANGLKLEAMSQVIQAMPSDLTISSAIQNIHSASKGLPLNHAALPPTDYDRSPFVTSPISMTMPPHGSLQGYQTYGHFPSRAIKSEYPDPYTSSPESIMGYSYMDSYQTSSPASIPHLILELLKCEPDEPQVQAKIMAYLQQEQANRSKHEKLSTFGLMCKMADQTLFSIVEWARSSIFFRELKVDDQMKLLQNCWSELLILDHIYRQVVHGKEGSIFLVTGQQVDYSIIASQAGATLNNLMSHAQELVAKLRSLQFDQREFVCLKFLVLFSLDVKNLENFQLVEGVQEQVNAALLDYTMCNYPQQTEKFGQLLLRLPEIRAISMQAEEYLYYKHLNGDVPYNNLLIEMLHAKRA

| Variant | effect of a mutation on the interaction |
| --- | --- |
| Y306A;K345A;W383A | disrupting interaction strength |
